{"source": "IntAct's records for PubMed 21187394", "parents": {"B1": {"name": "Protein BRASSINOSTEROID … 1 (Arabidopsis thaliana (Mouse-ear cress)), O22476 (parent)", "chain": "MKTFSSFFLSVTTLFFFSFFSLSFQASPSQSLYREIHQLISFKDVLPDKNLLPDWSSNKNPCTFDGVTCRDDKVTSIDLSSKPLNVGFSAVSSSLLSLTGLESLFLSNSHINGSVSGFKCSASLTSLDLSRNSLSGPVTTLTSLGSCSGLKFLNVSSNTLDFPGKVSGGLKLNSLEVLDLSANSISGANVVGWVLSDGCGELKHLAISGNKISGDVDVSRCVNLEFLDVSSNNFSTGIPFLGDCSALQHLDISGNKLSGDFSRAISTCTELKLLNISSNQFVGPIPPLPLKSLQYLSLAENKFTGEIPDFLSGACDTLTGLDLSGNHFYGAVPPFFGSCSLLESLALSSNNFSGELPMDTLLKMRGLKVLDLSFNEFSGELPESLTNLSASLLTLDLSSNNFSGPILPNLCQNPKNTLQELYLQNNGFTGKIPPTLSNCSELVSLHLSFNYLSGTIPSSLGSLSKLRDLKLWLNMLEGEIPQELMYVKTLETLILDFNDLTGEIPSGLSNCTNLNWISLSNNRLTGEIPKWIGRLENLAILKLSNNSFSGNIPAELGDCRSLIWLDLNTNLFNGTIPAAMFKQSGKIAANFIAGKRYVYIKNDGMKKECHGAGNLLEFQGIRSEQLNRLSTRNPCNITSRVYGGHTSPTFDNNGSMMFLDMSYNMLSGYIPKEIGSMPYLFILNLGHNDISGSIPDEVGDLRGLNILDLSSNKLDGRIPQAMSALTMLTEIDLSNNNLSGPIPEMGQFETFPPAKFLNNPGLCGYPLPRCDPSNADGYAHHQRSHGRRPASLAGSVAMGLLFSFVCIFGLILVGREMRKRRRKKEAELEMYAEGHGNSGDRTANNTNWKLTGVKEALSINLAAFEKPLRKLTFADLLQATNGFHNDSLIGSGGFGDVYKAILKDGSAVAIKKLIHVSGQGDREFMAEMETIGKIKHRNLVPLLGYCKVGDERLLVYEFMKYGSLEDVLHDPKKAGVKLNWSTRRKIAIGSARGLAFLHHNCSPHIIHRDMKSSNVLLDENLEARVSDFGMARLMSAMDTHLSVSTLAGTPGYVPPEYYQSFRCSTKGDVYSYGVVLLELLTGKRPTDSPDFGDNNLVGWVKQHAKLRISDVFDPELMKEDPALEIELLQHLKVAVACLDDRAWRRPTMVQVMAMFKEIQAGSGIDSQSTIRSIEDGGFSTIEMVDMSIKEVPEGKL", "partner": "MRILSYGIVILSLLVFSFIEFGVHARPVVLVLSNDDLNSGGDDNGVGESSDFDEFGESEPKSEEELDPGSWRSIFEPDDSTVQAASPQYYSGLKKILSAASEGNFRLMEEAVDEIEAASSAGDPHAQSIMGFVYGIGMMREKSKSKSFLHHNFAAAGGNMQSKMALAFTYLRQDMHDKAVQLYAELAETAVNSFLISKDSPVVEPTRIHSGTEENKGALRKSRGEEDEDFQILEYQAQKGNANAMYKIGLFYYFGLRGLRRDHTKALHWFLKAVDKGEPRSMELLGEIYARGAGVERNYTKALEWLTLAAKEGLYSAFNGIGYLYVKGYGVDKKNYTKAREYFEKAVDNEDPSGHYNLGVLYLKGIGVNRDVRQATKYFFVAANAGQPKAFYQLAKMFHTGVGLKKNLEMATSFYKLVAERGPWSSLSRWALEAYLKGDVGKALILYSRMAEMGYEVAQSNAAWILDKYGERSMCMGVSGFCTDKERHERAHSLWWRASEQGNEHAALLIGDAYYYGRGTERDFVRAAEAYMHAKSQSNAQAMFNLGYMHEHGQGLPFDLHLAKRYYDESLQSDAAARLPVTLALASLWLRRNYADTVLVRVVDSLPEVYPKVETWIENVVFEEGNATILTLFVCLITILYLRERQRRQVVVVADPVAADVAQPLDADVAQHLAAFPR"}}}
{"variants_of": "B1", "conditions": "with hrd3a_arath HRD3A"}
{"variant": "S662F", "effect of a mutation on the interaction": "increasing interaction strength"}
{"variant": "C69Y", "effect of a mutation on the interaction": "increasing interaction strength"}
